B1: Integrin beta-3 (Homo sapiens), P05106 (parent)
chain: MRARPRPRPLWATVLALGALAGVGVGGPNICTTRGVSSCQQCLAVSPMCAWCSDEALPLGSPRCDLKENLLKDNCAPESIEFPVSEARVLEDRPLSDKGSGDSSQVTQVSPQRIALRLRPDDSKNFSIQVRQVEDYPVDIYYLMDLSYSMKDDLWSIQNLGTKLATQMRKLTSNLRIGFGAFVDKPVSPYMYISPPEALENPCYDMKTTCLPMFGYKHVLTLTDQVTRFNEEVKKQSVSRNRDAPEGGFDAIMQATVCDEKIGWRNDASHLLVFTTDAKTHIALDGRLAGIVQPNDGQCHVGSDNHYSASTTMDYPSLGLMTEKLSQKNINLIFAVTENVVNLYQNYSELIPGTTVGVLSMDSSNVLQLIVDAYGKIRSKVELEVRDLPEELSLSFNATCLNNEVIPGLKSCMGLKIGDTVSFSIEAKVRGCPQEKEKSFTIKPVGFKDSLIVQVTFDCDCACQAQAEPNSHRCNNGNGTFECGVCRCGPGWLGSQCECSEEDYRPSQQDECSPREGQPVCSQRGECLCGQCVCHSSDFGKITGKYCECDDFSCVRYKGEMCSGHGQCSCGDCLCDSDWTGYYCNCTTRTDTCMSSNGLLCSGRGKCECGSCVCIQPGSYGDTCEKCPTCPDACTFKKECVECKKFDRGALHDENTCNRYCRDEIESVKELKDTGKDAVNCTYKNEDDCVVRFQYYEDSSGKSILYVVEEPECPKGPDILVVLLSVMGAILLIGLAALLIWKLLITIHDRKEFAKFEEERARAKWDTANNPLYKEATSTFTNITYRGT

Variants of: B1
Details: with ITGA2B
For K742C, the “effect of a mutation on the interaction” value was “disrupting interaction strength”.
With K742S the “effect of a mutation on the interaction” value was “disrupting interaction strength”.
With K742L the “effect of a mutation on the interaction” value was “disrupting interaction strength”.
For K742E, the “effect of a mutation on the interaction” value was “disrupting interaction strength”.
K742A was tested, and the “effect of a mutation on the interaction” value was “disrupting interaction strength”.

From IntAct's records for PubMed 22178926
